Reference: a protein production outcome set (Wang et al. 2014)

Test: label from the status in PepcDB records

Row | Sequence | protein production
1 | MTKFNYKSSLYLFNTIFLISLTTLGTMVMIPFAVESKIPKKTSNSISPFCKVLSEKFSPFGAAPDLSVALGKAIAEGGNLNQPCDIFGEKWLPLNFLLSTDEELSQRLIQTGVNVNAKDGKGDTPLHYLGKSEKNARLLLSRGAKVNVGNQNGNTPLHNLFGQKTAYVIKLLIDRGAKVNARNQEQMTPLHFAANSGKADITELLISRGGDVNARSTQNWTPLHYGASNLEVAKKLIQAGADLTIQNREGAVIHSSSLEPAVLKLLLDRGVNVNLRNRQGQTPLHIHRFQPALVKLLLARKAQVNLRDAQGKTPLYDVNLEVARQLVAANADLNVQDNLGRTPLHQAVLEEQSFFGSELVTLFLSKNARVDLKDKQGKTALDLARQLNKTQIINLLERHMATKNSPGSGTSTTKATEQLQQFLKSKNWSAADQETRRLLSPQKDLFGLNAATIPLDLIQEIDRAWLVASDGRFGLSVQAKIWQKVIASHPNNSETAANTFRDRVGWKLKVARTENDFISSDWLNESELNYSLQAPVGHLPWAGVSDASVLSLAVPPPGEHCGSCTIDAMFLRDGRFYKYLPQLFARVKMALNMNVSRPKSLAIAKK | failed
2 | MNMKKIFKRTSLLLATALIGVTATVQAQKSPQDMDRFIDALMRRMTVEEKIGQLNLPVTGEITTGQAKSSDVAKKIEQGLVGGLFNLKGVAKIRDVQKLAVENSRLGIPLLFGMDVIHGYETIFPIPLGLSCTWDMAAIEQSARIAATEASADGISWTFSPMVDISRDPRWGRVSEGSGEDPFLGGAIARAMVLGYQGKDPDDQLKRNDEIMACVKHFALYGAGEAGRDYNTVDMSRNRMFNEYMYPYEAAVRAGVGSAMASFNEVDGVPATANHWLMTDVLRKQWGFNGFVVTDFTGISEMVEHGIGNLQTVSTRALNAGVDMDMVSEGFVGTLKKSLTEGKITMKTLDAACRRILEAKYKLGLFDDPYKYCDLSRPARDIFTREHRAAARRIAAESFVLLKNEPFEGQGKKSSRPVLPLEKQGTVAVIGPLGNTRSNMPGTWSVAARLDDYPSLYEGLKEMTASRVNITYAKGSNLISDAAYEERATLFGRSLNRDNRTDKKLLDEALKVASGADVIVAALGESSEMSGESSSRTDLGIPDVQRTLLEALLKTGKPVVLTLFTGRPLTLTWEQEHVPAILNVWFGGSEAAYAIGDVLFGDVNPSGKLTMTFPKNVGQIPLFYNHKNTGRPLAEGKWFEKFRSNYLDVDNEPLYPFGYGLSYTTFRYSDIALSTPVMGQNGSTTAVVTVTNTGKRDGAEVVQLYIRDLVGSITRPVRELKGFEKVFLKAGESKTVSFKITPELLRFYDYDLNHVAEPGDFDVMIGGSSQAEKTARLTLK | failed
3 | MSEPIDILIAGAGIGGLSCALALHQAGIGKVTLLESSSEIRPLGVGINIQPAAVEALAELGLGPALAATAIPTHELRYIDQSGATVWSEPRGVEAGNAYPQYSIHRGELQMILLAAVRERLGQQAVRTGLGVERIEERDGRVLIGARDGHGKPQALGADVLVGADGIHSAVRAHLHPDQRPLSHGGITMWRGVTEFDRFLDGKTMIVANDEHWSRLVAYPISARHAAEGKSLVNWVCMVPSAAVGQLDNEADWNRDGRLEDVLPFFADWDLGWFDIRDLLTRNQLILQYPMVDRDPLPHWGRGRITLLGDAAHLMYPMGANGASQAILDGIELAAALARNADVAAALREYEEARRPTANKIILANREREKEEWAAASRPKTEKSAALEAITGSYRNQVERPRLEHHHHHH | not failed
4 | MSIPTDVVSLQIMAQVYQKKGLQSIFKKTVESLVEHVPYIDWAGIYMYDQLDYKLVAASNFEEDLRWDCNGELKFPIKNNEDKEVGMLIVRTLQPIAFDVTDVSTLETIATAIGQESYAN | failed
5 | MTFHKIFFVISLMLVVSLVNAVDYSVVDNSGDSTGGRRFRGEIGGISYGTQTLRSATDFVWRLFQQTNPSDRKSVTKITLFMENGDGVAYNSGNEIHFNVGYLAGVYRS | not failed
6 | MNLLIKINPVTRIIALMVLTTPLLLSLDVMSAAIALVATIILAPFAGVTWKMLLKRGWMLFLMAPVAALSMALYGRPDGKEYFSFLLIHVTDNSLALAAAIGLRVLAIGLPVVVLIARIDPTDLGDGLAQLLKLPERFVIGAVAGSRLMTLFREDWYSMSRARRARGIADQGKIKHFFTMTFGLLVLSLRRGSKLATAMEARGFGRTTGRTWARESTVGARDLVLILVCAAISAIALTVSIQTGFFKFLGT | failed
7 | MGSSHHHHHHSSGLVPRGSHMGKEYFLKVALREAKRAFEKGEVPVGAIIVKEGEIISKAHNSVEELKDPTAHAEMLAIKEACRRLNTKYLEGCELYVTLEPCIMCSYALVLSRIEKVIFSALDKKHGGVVSVFNILDEPTLNHRVKWEYYPLEEASELLSEFFKKLRNNII | not failed
8 | MTGTPCPDFTLPGTAGADFQLSSSRKPLVIYFYPKDNTPGCTNESMAFRDLHPEFAALGAEIVGISRDSLKSHQNFKAKLELPFELLSDSEETACSLFGVIKMKNMYGKQVRGIERSTFVIDASGKVSREWRGVKVPGHAEEVLAYVKTLK | failed
9 | TIDPKAQKAAWDGLTDLKGARGAVVALDPQTGKVLAMVSAPSYDPSAFAGSTFKESDRFVELDKKKNKPLANRALRETYPPGSTFKILTAAAALEHGIVTDVDARTDAVSPYPLPQSTNKIGSEAGDAVCNKASMKTAMQHSCNNVFLDAASKLGQDKMRETAEKFGFNEDVYSDDFGDLLATKSLYPEDLDKPGTALTGMGQGSLTSTPMQMALVTAGIANDGKVMQPYVVDEVKGPDLDTLEKTEPAVMSEAVSAETAQKVQEMMEFTAKEGSARRAQIDGITVGGKTGTAQRGVDVNDEVPYGWFVSYGKKDDGSSVAVAVFIDPTDMDISRADISGGGLGAPIAKSVMKAVLK | failed
10 | MIEEAPPHPSAPMAASPSVTTALKHAPLGIAIFDNQMRYLAASRQYLTDQHLPPDLPLIGRLHYDAFPEVPQKWRDLHARVLAEGVELRHEGDPYVDREGRTQWIRWSMAPWRTDGGGIGGLVLYTEVVT | failed
11 | MNQAMDTKQIAPFTLALPEGEALPLVCDSPHSGTFYPADFGAVVAPERLRGGEDTHVDALWEAVPRVGGTLLAATFPRVYIDPNRMLDDIDPAQLEGPWPTPLAPGEKTRLGYGLIWSNVDAATPIYDRKLTVAEVQRRINRYYRPYHAALTEAVEGAYQRFGAVWHLNLHSMPNNAYERLKIQSPRPLADFVLGDRDGTTCEPGLVDLVERELREKGYTVARNDPYKGVQLIAQIGRPAERRNSLQIEIRRPLYMEEGTRERNEGFATLQRDLTLLTLRIAEYVRRGV | not failed
12 | MRTLLFLMLGSVSAIANAASPAPASASASAASATATATPEQIKLQLREYFFDAAREGRQDMLAEFIRSHYDLNTRDEKGYTALILAAYHGQRPAVEQLLSAGADPCAQDKRGNTALMGAIFKGELGIAKRLMQADCAPDQRNNAGQTAAMYAALFQRTDVLKDLAAKGADLSLKDGQGNDVTKLQRGEFATTPAR | failed
13 | YTDESGLSELVNAAGEKLQDLELMGQKNAVRDFFKELIADSGKVAYGESQVRANLEINSVDVLLLSEDLRAERVTTKCSVCGYENKWTRRWKPGEPAPAAGNCPKCGSSLEVTDVTDIVDEFSELADKSNAKVVFVSTDFDEGSQLMNAFGGIAAILRYNTGV | not failed
14 | AMPIAKAIEEKWGVPAEVVIAQAALESGWGKHVKGNAYFGIKGKGSQGSINFGTHEVINGKKISINDNFASYGGFGDAANGYGEFLNKNKRYREAFKHKDNPVEFAKAIARAGYATDPDYANKLTKIIQSNKFS | not failed
15 | VASGYGGIRVGGPYFDDLSKGQVFDWAPGVTLSLGLAAAHQSIVGNRLRLALDSDLCAAVTGMPGPLAHPGLVCDVAIGQSTLATQRVKANLFYRGLRFHRFPAVGDTLYTRTEVVGLRANSPKPGRAPTGLAGLRMTTIDRTDRLVLDFYRCAMLPASPDWKPGAVPGDDLSRIGADAPAPAADPTAHWDGAVFRKRVPGPHFDAGIAGAVLHSTADLVSGAPELARLTLNIAATHHDWRVSGRRLVYGGHTIGLALAQATRLLPNLATVLDWESCDHTAPVHEGDTLYSELHIESAQAHADGGVLGLRSLVYAVSDSASEPDRQVLDWRFSALQF | not failed
16 | DGRIFKMFIEHLEFEKGLDAFSQSWIKALEDSEFLAILRLLFHHIVTSESAHEFAANGIDRLYKMVESQFGSGGDKELEWLIGRSLIQMSK | not failed
17 | MRPIPEGYEAVFETVVTPEMTVRFEELGPVHPVYATYWMVKHMELAGRKIILPFLEEGEEGIGSYVEARHLASALPGMRVRVVARHEKTEGNRVYARVEAYNELGDLIGVGRTEQVILPKAKVEALFRRLKERWEAERSPS | not failed
